Reference: the DeepSol protein solubility set

Test: soluble on expression in E. coli; label from the status in PepcDB or PDB records

| Sequence | soluble on expression in E. coli |
| --- | --- |
| AVSKVYARSVYDSRGNPTVEVELTTEKGVFRSIVPSGASTGVHEALEMRDGDKSKWMGKGVLHAVKNVNDVIAPAFVKADIDVKDQKAVDDFLISLDGTANKSKLGANAILGVSLAASRAAAAEKDVPLYKHLADLSKSKTSPYVLPVPFLNVLNGGSHAGGALALQEFMIAPTGAKTFAEALRIGSEVYHNLKSLTKKRYGASAGNVGDEGGVAPNIQTAEEALDLIVDAIKAAGHDGKVKIGLDCASSEFFKDGKYDLDFKNPNSDKSKWLTGPQLADLYHSLMKRYPIVSIEDPFAEDDWEAWSHFFKTAGIQIVADDLTVTNPKRIATAIEKKAADALLLKVNQIGTLSESIKAAQDSFAAGWGVMVSHRSGETEDTFIADLVVGLRTGQIKTGAPARSERLAKLNQLLRIEEELGDNAVFAGENFHHGDKL | soluble |
| MSLDQPVVGLITKTDTNPFFVKMKQGAEAAASKDGAKLITAAGKFDGDNASQVTAIENMMTAGAKAILITPSDTKAIVPSIKKARAAGVMVVALDTPTDPQDATDALFATDNFKAGVLIGKYAKAALNGKPAKIATLDLAPGVSVGVLRHNGFLEGFGVKEGDPSVVCSQDTRGDQAKGQTAMENCLQKSPDINVVYTINEPAAAGAYRALKAAGKDKSVMIVSIDGGCEGVRNVKAGAIAATSQQYPLKMASLGVTAGVEYAKTGKKVSGYQDTGVTLITDKPMAGIDSKDTKFGLDNCWGNEGHHHHHH | soluble |
| KPYQVVGEKQEILNLIDNTTLDVSFTLPVSYAESVSLSALKNAEMWVTMDSEPSKRIPGKFKEISTQPNIDTNSYEAIVTITRPTDRNLLTGMTGQVHIAKQNKSNAMTLPTSAWVNKQEKQGEVWVMDSSTQQVSKVTLSLNESGAIESGLDNNDYVVIAGVERLVEGQVVKAWIREEGI | not soluble |
| MLSSKEVYARLDAILPSSVDREDAESNLNAGEIEYAITALLDDAYTSVGLSDAVVSLIRENYDDGPVIDMLDALLYFQKLNSGGDAVRMQR | not soluble |
| LAIAAIRNLLIKNDIEILAELTEGGSAVQRVETLKPDIVIIDVDIPGVNGIQVLETLRKRQYSGIIIIVSAKNDHFYGKHCADAGANGFVSKKEGMNNIIAAIEAAKNGYCYFPFSLNRFVGSLTSDQQKLDSLSKQEISVMRYILDGKDNNDIAEKMFISNKTVSTYKSRLMEKLECKSLMDLYTFAQ | not soluble |
| MKPLLLSRRTHQKPGNYASGRGFPSSTRYIEDVQWLLKEFEPFVRVSADLPFVKARDIALIRSELEKKKPASLEVCLLEHHHHHH | not soluble |
| MEMSSNNKPVAGAEIKVAGASPTDSDQEGRFILNFTASLPGDPLMINDIYKKGFKIVNYEKVANWNISSASELKIVLGRTEVINALRKKYYDIGESNSEKEYRKTLAELEELKKQNALSAVEYDQKVDSMSKSMMEWQKRLEIYALKFACINRDELDAMEKQAMELLDHGDVHGAIRLYEEMKLDSTMTLKIAVRQEAKEDMKLLLPSLVNNFQLLKQADDKVACDSVAHLIYEMAADIKLKLMSVEWFFQRNDPSEVLDQYSLIVKDTQSMQEIELVENSLQQSLKEVKLKGELKKKAQLVFERIEDRKKWISIKEKI | not soluble |
| MGNSHSVTTALHSVLKQREIKVSTRTLETFIKEIERISPWYACSGSLTLSSWEKLREDLAKEQQNGKLKAGTMPLWKLVRSCLEDERCRPAIITGQAILEEAQDSMAETEWCERLGAPKKGKCAQSKKPFQRP | soluble |
| MGSDKIHHHHHHMAKVVISGYYGFDNLGDEAVLFSILKTLRELQIGIRIEVLSNNPSQTAEIYRVTAANRWKLGEVYHALKDSDMLISGGGSLLQDVTGWKSLVYYLGVIWLARFLGKPVFFYAQGIGPVNTPLGRLLMRWIVNKVNYITVRDESSRQDLAEMKISRPPVEVTADPVLGLEEKYVDKKIGQAILQEVGLDLSIERKMVGISVREWQGLGEYKEVVAELCDKLCRVGYQVVFLPMHSPDDLETSREVAAMMEQPAVVLEGHYSVVEMASLIANMDLLIGMRLHALILAAVMHVPPVAISYDPKIDRFMGLLGKTAATPVDRPQFAELWQAVEEIIYEPWQVREELMQQVEPLRQRAQASAVLGLKVLEKSLHNGPAAKYL | not soluble |
| MDFSLTEEQELLLASIRELITTNFPEEYFRTCDQNGTYPREFMRALADNGISMLGVPEEFGGIPADYVTQMLALMEVSKCGAPAFLITNGQCIHSMRRFGSAEQLRKTAESTLETGDPAYALALTEPGAGSDNNSATTTYTRKNGKVYINGQKTFITGAKEYPYMLVLARDPQPKDPKKAFTLWWVDSSKPGIKINPLHKIGWHMLSTCEVYLDNVEVEESDMVGEEGMGFLNVMYNFEMERLINAARSTGFAECAFEDAARYANQRIAFGKPIGHNQMIQEKLALMAIKIDNMRNMVLKVAWQADQHQSLRTSAALAKLYCARTAMEVIDDAIQIMGGLGYTDEARVSRFWRDVRCERIGGGTDEIMIYVAGRQILKDYQNK | soluble |
| MPVRYSGFDYDGCVGVTNLINIVAQNPKLAQRIRETSNYYTKEVALIASNRQSDRDDKRNARSNGNGSCFIQIQKLCTDLGMEFDPFLLADAYNLVPAGTSLHEATNPANGAKIQNGWLHDKSKASLVYAHMQRASSLEAREQIDYFFYDDREDILEGLYQFFSANPELIPSNVTMHLVKYACSRENVHTMDNYKIPVQGKGFTNPDYVKTIKAFGDKAIENARDVYDIDGKEINAAGVRQAKYNCNFEFEANKLQPMKFVNNFNSPAELIKAHEQAIEKIKLGAFELYKAKINVITTLSNEQKVFLIRAKAQQWNLLCDEGQWNNPIFTLQAIMAEKSDRFFLPQYAFTAKMLIKNYQEARENSKDGSRFWEQINAFIKSMNALKDPMRNAQSIFEVFKKNSYSVKAVDGFVKKVVEVMNALMDKYPQRSTTEMVACMRILESNLQKMVNFFSLVDRLITIYRGCTTAGLNFNKILTVVREALEEMKMITDSGDNYSTTLIDLDKVITAANNRLESLTYPKEYSTKNFHSQESYKVVGAYLCMQSQLIQKLDTKASTALAI | not soluble |
| SASEVEEQIPVREEFFLCGGVETKIIKCGPWTNLFEKQDVSKPKQLIFIIPGNPGYSAFYVPFAKALYTLMKSRFPVWIISHAGFSVTPKDKKVLAAPQEESNAQKIEDVYGLNGQIEHKIAFLRAHVPKDVKLILIGHSVGTYMTLHVMKRVPELPVAHAFLLFPTIERMSESPNGKFATPFLCQFRYLLYATSYLLFKPCPEVIKSFIIQKLMGQMNIKLELPLTDILQPFCLA | soluble |
| MGSDKIHHHHHHMMFLFINISLAQTADTAVKSDELQTTTTSVDEVGVAPADPTPTLSKKELRRQRVAKRNLHYNILGGPSYTPDFGLLIGGSALMTFRMNPSDTTQQRSVVPMAIALMFEGGLNLFTKPQLFFKGDRFRIFGVFAYKNTLENFYGIGYSTNKDYPRGEDTSEYRYSGVQVNPWFLFRLGKSNFFAGPQIDFNYDKITKPAAGMIEQPSYIAAGGTDHGYSNLSSGLGFLLTYDTRDVPANAYRGTYLDFRGMMYNKAFGSDNNFYRLEIDYRQYKTLGKRKVLAWTVQTKNVFGNVPLTKYALSGTPFDLRGYYMGQFRDKSSHVMMAEYRQMINTDKSNWVKKMLNHVGYVAWGGCGFMGPTPGKIEGVLPNLGLGLRIEVQPRMNVRLDFGRDMVNKQNLFYFNMTEAF | not soluble |
| MAHHHHHHMGCKNSKAREPPADTVTAAQANIATNKNSSTAPTLSPAQHHAKQTGETKRNNAASPASRGNNGEASENESRSEQPKKALGPGGNDVKQAASNSPSKQELDDEGNPLLLPNGDWVRTEGTPFYYSVEENLYFHPPSCQFYDPTNGMWYDPEKDEWYYDDENGAQE | soluble |
| MNCESLLTALDVSTLLSTLSSPEKEHRRKRRRGEVANPSNTLDALVARKADDQPFEKRYLSEQEAIEGPDDEIEMKKMELDPDVSTRTCSTCGYQGKWVSEMIRHKRVHTSERPFKCRYCSRTSKWKADLIRHVAKTHGIRVVSKYSRSKVFDATNSSMDSSCSSDSDRCIISEKRTVFYRCQLCSFEDERVSVLNSHVSHLHNTSPCVCRCGAKFEDVQGALAHSNGPCSHVDMIYNVMPTYEKASPLSPCRSESSSDSGIQTDPEEEASIITSSLPTPQLGSSPLLLSPTLPVTPSFLPDIQSALLSLQPNPLMSLYLASLLQSSLLNSPTIPTSFPQIIPTTILTPSQQDEMVDVEM | not soluble |
| MPLTTNTILICAGGACISAGEKSVKDAFEEELRKYGLDEVVRVIETGCMGACTLGPIAVIYPESVFYQKLTPDAAREIVEEHILKGRIVEKYLYKASEGKPVPRVHEEVPFFKKQVRIVTRNLGVIDPTKIEEYIARDGYFALAKALQMKPEDVIKEIKDSGLRGRGGAGFPTGLKWELAARQKAEKKFVVCNADEGDPGAFMDRSVLEGDPHAVIEGMAIAAYAIGAQKGFVYVRAEYPLAIERLNIALNQAREYGFLGGNIMGTDFSFDIEIRIGAGAFVCGEETALMASIEGERGQPKVKPPYPVEKGLWGYPTVINNVETLANVPWIIRNGAKEFRKYGTENSPGTKVFALAGKVKNTGLVEVPMGITLRELIYEIGGGIAGDKKLKAIQTGGPSGGCIPAEYVDTPVDFESLQKLGAIMGSGGMIVMDEDDCMVDVARFFLEFTVEESCGKCTPCREGTKKMLEILEKITSGEGTEEDIEELEKLAHVVKDTSLCGLGQTAPNPVLSTLRYFRDEYLAHVKEKRCPSKKCKALISYVIDPEKCVGCTACARVCPVQCISGQVRQPHVIDQAECVRCGSCIEVCRFGAISKVTPALPVEEAVEAAALEHHHHHH | not soluble |
| MAAIIRTLFKSKKSKKGDEENNEDLAREVSNRRSFRAPSTSSSKSQRRAVARFADDGALPATAAYHTTSAPKLRKGPQSCPGGYRDESDVSYESDKYSQKSNSHRRRDVLHQSMRQNYTIDEGRKPSSRRHHSSKSDFRRRGESSEYGSGDPSPVGQYSSRHSHYEDRIEESENDDFSEKAQFAVIERAQQHYMQKYKESEQKRREEKRKLKDMEKECNDAKNAMFHYMNQLDKVKKERDCYRKELSRCKKQLEAFQNSGYDAFHHLRQPQISNPQQYPPPLSMGSYPYMSQSMNASHHMSSNFMNSAPPSSNTPMTMTSGAGESLINPSDVSFLQNSFLQPTSQGLTGMTPPPGGFKVPTNYGDDDRDEVKDYRSELLIETSRSTKEVDSISPSSSADSQVTLLDHSTIDKENRKPPSRPFSMMSI | not soluble |
| MWFGEFGGQYVPETLIEPLKELEKAYKRFKDDEEFNRQLNYYLKTWAGRPTPLYYAKRLTEKIGGAKIYLKREDLVHGGAHKTNNAIGQALLAKFMGKTRLIAETGAGQHGVATAMAGALLGMKVDIYMGAEDVERQKMNVFRMKLLGANVIPVNSGSRTLKDAINEALRDWVATFEYTHYLIGSVVGPHPYPTIVRDFQSVIGREAKAQILEAEGQLPDVIVACVGGGSNAMGIFYPFVNDKKVKLVGVEAGGKGLESGKHSASLNAGQVGVFHGMLSYFLQDEEGQIKPTHSIAPGLDYPGVGPEHAYLKKIQRAEYVTVTDEEALKAFHELSRTEGIIPALESAHAVAYAMKLAKEMSRDEIIIVNLSGRGDKDLDIVLKVSGNV | soluble |
| MKTYHLNNDIIVTQEQLDHWNEQLIKLETPQEIIAWSIVTFPHLFQTTAFGLTGLVTIDMLSKLSEKYYMPELLFIDTLHHFPQTLTLKNEIEKKYYQPKNQTIHVYKPDGCESEADFASKYGDFLWEKDDDKYDYLAKVEPAHRAYKELHISAVFTGRRKSQGSARSQLSIIEIDELNGILKINPLINWTFEQVKQYIDANNVPYNELLDLGYRSIGDYHSTQPVKEGEDERAGRWKGKAKTECGIHEASRFAQFLKQDA | soluble |
| MKIATYNVRVDTEYDQDWQWSFRKEAVCQLINFHDWSLCCIQEVRPNQVRDLKAYTTFTCLSAEREGDGQGEGLAILYNEQKVQAIDTGYFWLSETPQQPSIHPEAGCPRIALWGLFKETTQNTPFLVINVHLDHISAHARLAGMTVILEELHDKIAQYPTLLMGDFNAESGEEVHQLVQKKFQDSKNLATHYGPRGTFQNFTYTKPWAELEEIDYIYVKGWQVQQTASLTDSIDGRFPSDHFPLEAEVCIEER | not soluble |
